For data set [1], the target named is PDGFRα extracellular domain (Homo sapiens, UniProt P16234 24-524). In words: SPR. (In general: Surface plasmon resonance follows binding to a sensor surface in real time, without labels.)
Data set [2] has as its target PDGFRβ (recombinant) (UniProt P09619 33-532). In words: SPR.

PDGFRα extracellular domain, sequence (P16234 24-524): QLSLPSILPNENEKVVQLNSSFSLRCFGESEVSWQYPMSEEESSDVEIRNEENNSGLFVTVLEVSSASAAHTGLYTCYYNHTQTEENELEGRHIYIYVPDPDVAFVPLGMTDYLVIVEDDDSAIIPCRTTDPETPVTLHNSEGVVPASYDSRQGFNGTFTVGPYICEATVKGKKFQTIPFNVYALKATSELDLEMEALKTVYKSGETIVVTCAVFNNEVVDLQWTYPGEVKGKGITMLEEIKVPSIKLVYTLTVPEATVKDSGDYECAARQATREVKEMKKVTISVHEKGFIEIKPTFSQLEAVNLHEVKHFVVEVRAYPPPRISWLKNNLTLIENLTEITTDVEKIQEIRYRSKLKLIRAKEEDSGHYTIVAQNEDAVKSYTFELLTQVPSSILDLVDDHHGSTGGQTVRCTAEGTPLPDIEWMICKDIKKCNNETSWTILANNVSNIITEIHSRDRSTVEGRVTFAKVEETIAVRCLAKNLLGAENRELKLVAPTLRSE
PDGFRβ (recombinant), sequence (P09619 33-532): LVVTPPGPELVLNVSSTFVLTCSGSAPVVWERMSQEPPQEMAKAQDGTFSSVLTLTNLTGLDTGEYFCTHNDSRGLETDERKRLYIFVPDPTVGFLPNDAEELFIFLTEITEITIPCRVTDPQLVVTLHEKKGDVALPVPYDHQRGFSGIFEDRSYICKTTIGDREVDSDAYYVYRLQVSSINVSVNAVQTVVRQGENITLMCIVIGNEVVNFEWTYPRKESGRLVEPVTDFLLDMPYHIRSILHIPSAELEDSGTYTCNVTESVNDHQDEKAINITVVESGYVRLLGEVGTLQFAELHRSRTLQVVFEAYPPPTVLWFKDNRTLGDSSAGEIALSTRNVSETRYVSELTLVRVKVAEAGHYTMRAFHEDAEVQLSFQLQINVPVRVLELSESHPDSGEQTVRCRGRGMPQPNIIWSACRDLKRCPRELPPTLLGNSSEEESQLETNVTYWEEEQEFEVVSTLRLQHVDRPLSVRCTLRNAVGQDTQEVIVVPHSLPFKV

B1: PDR3 (structured_RNA)
RNA: GGGAGAGCGGAAGCGUGCUGGGCCUGCUCUUUAAUAAACCCACUUUCGAACAUCAGCGUAUGUCCAUAACCCAGAGGUGAUGGAUCCCCC
modifications: 2'-F pyrimidines (2'F-U, 2'F-C)
What is called Kd is the constant that tells how readily two partners part at equilibrium. The low end stands for higher affinity, the high end for lower affinity. For B1, binding in data set [1] was characterised by a dissociation constant (Kd) of 0.25 nM. Besides, the binding result in data set [2] is reported as “no binding”.
